# Test results from publication PMC4403819.
# Biological target: T1, OmpR-His6 non-phosphorylated (Yersinia enterocolitica Ye9 (O:9)?) (UniProt P74982)
# T1 sequence: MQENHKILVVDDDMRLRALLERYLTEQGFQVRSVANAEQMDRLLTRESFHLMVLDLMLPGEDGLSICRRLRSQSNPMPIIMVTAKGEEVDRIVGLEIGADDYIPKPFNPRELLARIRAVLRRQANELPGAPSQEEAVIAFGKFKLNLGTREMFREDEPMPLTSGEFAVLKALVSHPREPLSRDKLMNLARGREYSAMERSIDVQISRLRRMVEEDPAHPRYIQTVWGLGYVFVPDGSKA
# Assay: EMSA
# Details: Binding buffer, pH and temperature not given ([…]
sequence,measurement,value
TGGAATTCATTGCAGCCAGAGGCATTACCCCTCTGTTTTTGCTCATAGATAAACCTCAAGTGTCCGATTTTTAATTTAATTCAATGGATCACAAGCTTTAAAACCCATTGCTGCGTAAATTATATGTGCGTGCTATGGTACATACATTCGTGAATGTATGTAAATCGCACCCCCTCGAAAAAACAACGCTATGGCACGAAAAACCAAACAGCAAGGTACCCA (double strand) [acrR promoter fragment p222],binding,binds more weakly
